The values below come from patent US20220048954A1.

For the test, the target named is mouse angiotensin converting enzyme 2 (ACE2) (mouse) (UniProt Q8R0I0). Put plainly: cell-based or functional assay.

Where “and” joins values, the source holds several entries; their conditions need not be identical. Equal entries are not always repeated.

UniProt Q8R0I0, sequence (Q8R0I0 18-805): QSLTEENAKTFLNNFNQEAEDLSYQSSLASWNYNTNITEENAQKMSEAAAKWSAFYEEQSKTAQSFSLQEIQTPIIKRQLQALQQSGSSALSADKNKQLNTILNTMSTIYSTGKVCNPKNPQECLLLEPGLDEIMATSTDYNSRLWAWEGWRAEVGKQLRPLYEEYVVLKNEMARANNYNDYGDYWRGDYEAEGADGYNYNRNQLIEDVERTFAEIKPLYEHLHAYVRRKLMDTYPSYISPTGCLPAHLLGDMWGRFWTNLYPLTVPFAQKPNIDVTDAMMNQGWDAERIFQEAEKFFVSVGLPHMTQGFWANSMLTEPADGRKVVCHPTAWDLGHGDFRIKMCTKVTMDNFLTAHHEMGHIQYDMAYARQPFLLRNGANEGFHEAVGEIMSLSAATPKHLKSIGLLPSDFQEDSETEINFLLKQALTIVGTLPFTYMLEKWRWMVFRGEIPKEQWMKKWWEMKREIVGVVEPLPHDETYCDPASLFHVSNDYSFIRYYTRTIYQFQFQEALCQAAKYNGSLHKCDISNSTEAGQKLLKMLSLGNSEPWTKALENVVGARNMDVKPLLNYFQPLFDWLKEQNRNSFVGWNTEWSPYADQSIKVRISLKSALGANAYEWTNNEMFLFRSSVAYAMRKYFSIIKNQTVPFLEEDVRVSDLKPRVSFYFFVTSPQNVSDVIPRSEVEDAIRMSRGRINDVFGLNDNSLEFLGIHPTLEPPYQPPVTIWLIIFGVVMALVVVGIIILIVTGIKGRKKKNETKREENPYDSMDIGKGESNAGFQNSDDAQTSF

As to “SARS-CoV2 Spike protein, WT (614D), with C-terminal HA tag (from UniProt P0DTC2 14-1273)”, the cell fusion assay, FACS red/green double positive events (x over the baseline without Spike) was 17 and 18.
